# Measurements: patent publication US20080090770A1 (published 2008)
# Where no end group is shown, it is not given here.
# B1: YGRKKRRQRRRAVAATSINL (SEQ ID NO: 138) (peptide)
# peptide: YGRKKRRQRRRAVAATSINL
# modifications: also: biotinylated, position not given here
# notes: TAT plus 9 residues; also called AVC#1791; AVC 1791
# B2: Flag-MUC1-CD(1-68) (other)
# chain: CQCRRKNYGQLDIFPARDTYHPMSEYPTYHTHGRYVPPSSTDRSPYEKVSAGNGGSSLSYTNPAVAAT
# notes: also called pIRESpuro2-Flag-MUC1-CD(1-68); truncated MUC1 cytoplasmic domain; not shown: Flag tag
# B3: MUC1 C-terminus peptide NGGSSLSYTNPAVAATSANL (SEQ ID NO: 96) (peptide)
# peptide: NGGSSLSYTNPAVAATSANL
# modifications: also: biotinylated, position not given here
# notes: also called C-terminus of MUC1; MUC1 peptide
# B4: YGRKKRRQRRRGMTSSSSVV (SEQ ID NO: 169) (peptide)
# peptide: YGRKKRRQRRRGMTSSSSVV
# modifications: also: biotinylated, position not given here
# notes: TAT plus 9 residues; also called AVC#1853
# B5: YGRKKRRQRRRSRTDRLEYV (SEQ ID NO: 162) (peptide)
# peptide: YGRKKRRQRRRSRTDRLEYV
# modifications: also: biotinylated (position not given here)
# notes: TAT plus 9 residues; also called AVC#1846
# B6: YGRKKRRQRRRQDERVETRV (SEQ ID NO: 171) (peptide)
# peptide: YGRKKRRQRRRQDERVETRV
# modifications: also: biotinylated (position not given here)
# notes: TAT plus 9 residues; also called AVC#1855
# B7: YGRKKRRQRRRSVTSTSINL (SEQ ID NO: 151) (peptide)
# peptide: YGRKKRRQRRRSVTSTSINL
# modifications: also: biotinylated (position not given here)
# notes: TAT plus 9 residues; also called AVC#1835
# B8: YGRKKRRQRRRAVAATGIWA (SEQ ID NO: 143) (peptide)
# peptide: YGRKKRRQRRRAVAATGIWA
# modifications: also: biotinylated, position not given here
# notes: TAT plus 9 residues; also called AVC#1827
# B9: YGRKKRRQRRRAVAATYSNL (SEQ ID NO: 139) (peptide)
# peptide: YGRKKRRQRRRAVAATYSNL
# modifications: also: biotinylated, position not given here
# notes: TAT plus 9 residues; also called AVC#1793
# B10: YGRKKRRQRRRQDERRLIVL (SEQ ID NO: 158) (peptide)
# peptide: YGRKKRRQRRRQDERRLIVL
# modifications: also: biotinylated (position not given here)
# notes: TAT plus 9 residues; also called AVC#1842
# B11: YGRKKRRQRRRQDEEEGIWS (SEQ ID NO: 149) (peptide)
# peptide: YGRKKRRQRRRQDEEEGIWS
# modifications: also: biotinylated, position not given here
# notes: TAT plus 9 residues; also called AVC#1833
# B12: YGRKKRRQRRRQDEEETIWA (SEQ ID NO: 144) (peptide)
# peptide: YGRKKRRQRRRQDEEETIWA
# modifications: also: biotinylated (position not given here)
# notes: TAT plus 9 residues; also called AVC#1828
# B13: YGRKKRRQRRRARGTRLVWV (SEQ ID NO: 160) (peptide)
# peptide: YGRKKRRQRRRARGTRLVWV
# modifications: also: biotinylated, position not given here
# notes: TAT plus 9 residues; also called AVC#1844
# B14: YGRKKRRQRRRKNKDKEYYV (SEQ ID NO: 168) (peptide)
# peptide: YGRKKRRQRRRKNKDKEYYV
# modifications: also: biotinylated, position not given here
# notes: TAT plus 9 residues; also called AVC#1852
# B15: YGRKKRRQRRRARGDRLVSL (SEQ ID NO: 159) (peptide)
# peptide: YGRKKRRQRRRARGDRLVSL
# modifications: also: biotinylated, position not given here
# notes: TAT plus 9 residues; also called AVC#1843
# B16: YGRKKRRQRRRSRTVREIWA (SEQ ID NO: 150) (peptide)
# peptide: YGRKKRRQRRRSRTVREIWA
# modifications: also: biotinylated (position not given here)
# notes: TAT plus 9 residues; also called AVC#1834
# B17: YGRKKRRQRRRSRTDRKYWA (SEQ ID NO: 148) (peptide)
# peptide: YGRKKRRQRRRSRTDRKYWA
# modifications: also: biotinylated (position not given here)
# notes: TAT plus 9 residues; also called AVC#1832
# B18: YGRKKRRQRRRSRTDRKYQI (SEQ ID NO: 155) (peptide)
# peptide: YGRKKRRQRRRSRTDRKYQI
# modifications: also: biotinylated (position not given here)
# notes: TAT plus 9 residues; also called AVC#1839
# B19: YGRKKRRQRRRARGDRKVPV (SEQ ID NO: 157) (peptide)
# peptide: YGRKKRRQRRRARGDRKVPV
# modifications: also: biotinylated, position not given here
# notes: TAT plus 9 residues; also called AVC#1841
# B20: YGRKKRRQRRRARGDRTIIY (SEQ ID NO: 164) (peptide)
# peptide: YGRKKRRQRRRARGDRTIIY
# modifications: also: biotinylated, position not given here
# notes: TAT plus 9 residues; also called AVC#1848
# B21: YGRKKRRQRRRARGDRKRWL (SEQ ID NO: 141) (peptide)
# peptide: YGRKKRRQRRRARGDRKRWL
# modifications: also: biotinylated, position not given here
# notes: TAT plus 9 residues; also called AVC#1822
# B22: YGRKKRRQRRRARGDRYRIV (SEQ ID NO: 161) (peptide)
# peptide: YGRKKRRQRRRARGDRYRIV
# modifications: also: biotinylated, position not given here
# notes: TAT plus 9 residues; also called AVC#1845
# B23: YGRKKRRQRRRARTDRKVEV (SEQ ID NO: 153) (peptide)
# peptide: YGRKKRRQRRRARTDRKVEV
# modifications: also: biotinylated, position not given here
# notes: TAT plus 9 residues; also called AVC#1837
# B24: YGRKKRRQRRRARGDRKKIV (SEQ ID NO: 166) (peptide)
# peptide: YGRKKRRQRRRARGDRKKIV
# modifications: also: biotinylated, position not given here
# notes: TAT plus 9 residues; also called AVC#1850
# B25: YGRKKRRQRRRARGDRLEIV (SEQ ID NO: 163) (peptide)
# peptide: YGRKKRRQRRRARGDRLEIV
# modifications: also: biotinylated, position not given here
# notes: TAT plus 9 residues; also called AVC#1847
# B26: YGRKKRRQRRRARSDRTIWA (SEQ ID NO: 145) (peptide)
# peptide: YGRKKRRQRRRARSDRTIWA
# modifications: also: biotinylated, position not given here
# notes: TAT plus 9 residues; also called AVC#1829
# B27: YGRKKRRQRRRARGDRKRWA (SEQ ID NO: 140) (peptide)
# peptide: YGRKKRRQRRRARGDRKRWA
# modifications: also: biotinylated, position not given here
# notes: TAT plus 9 residues; also called AVC#1821
# B28: YGRKKRRQRRRARSDRKRIA (SEQ ID NO: 147) (peptide)
# peptide: YGRKKRRQRRRARSDRKRIA
# modifications: also: biotinylated, position not given here
# notes: TAT plus 9 residues; also called AVC#1831
# B29: YGRKKRRQRRRARSDRTIIA (SEQ ID NO: 146) (peptide)
# peptide: YGRKKRRQRRRARSDRTIIA
# modifications: also: biotinylated, position not given here
# notes: TAT plus 9 residues; also called AVC#1830
# B30: YGRKKRRQRRRARSDRKRIV (SEQ ID NO: 167) (peptide)
# peptide: YGRKKRRQRRRARSDRKRIV
# modifications: also: biotinylated, position not given here
# notes: TAT plus 9 residues; also called AVC#1851
# B31: YGRKKRRQRRRARSDRGIWA (SEQ ID NO: 142) (peptide)
# peptide: YGRKKRRQRRRARSDRGIWA
# modifications: also: biotinylated, position not given here
# notes: TAT plus 9 residues; also called AVC#1823
# B32: YGRKKRRQRRRARGDRKIRV (SEQ ID NO: 152) (peptide)
# peptide: YGRKKRRQRRRARGDRKIRV
# modifications: also: biotinylated, position not given here
# notes: TAT plus 9 residues; also called AVC#1836
# B33: YGRKKRRQRRRARGDRKYIV (SEQ ID NO: 154) (peptide)
# peptide: YGRKKRRQRRRARGDRKYIV
# modifications: also: biotinylated, position not given here
# notes: TAT plus 9 residues; also called AVC#1838
# B34: YGRKKRRQRRRARGDRRRIV (SEQ ID NO: 165) (peptide)
# peptide: YGRKKRRQRRRARGDRRRIV
# modifications: also: biotinylated, position not given here
# notes: TAT plus 9 residues; also called AVC#1849
# B35: YGRKKRRQRRRARGDVRLML (SEQ ID NO: 156) (peptide)
# peptide: YGRKKRRQRRRARGDVRLML
# modifications: also: biotinylated, position not given here
# notes: TAT plus 9 residues; also called AVC#1840
# Molecular target: T1, GST-RIM2 (KIAA0751) PDZ domain 1 (human)
# T1 construct: Construct RIM2, PDZ domain 1-pGEX-3X; vector sites BamH1/EcoR1, insert sites BglII/MfeI; also called GST-RIM2 PDZ domain; RIM3 (as printed once)
# Assay: modified ELISA, peptide titration
# T1 sequence (chain, as listed by the source): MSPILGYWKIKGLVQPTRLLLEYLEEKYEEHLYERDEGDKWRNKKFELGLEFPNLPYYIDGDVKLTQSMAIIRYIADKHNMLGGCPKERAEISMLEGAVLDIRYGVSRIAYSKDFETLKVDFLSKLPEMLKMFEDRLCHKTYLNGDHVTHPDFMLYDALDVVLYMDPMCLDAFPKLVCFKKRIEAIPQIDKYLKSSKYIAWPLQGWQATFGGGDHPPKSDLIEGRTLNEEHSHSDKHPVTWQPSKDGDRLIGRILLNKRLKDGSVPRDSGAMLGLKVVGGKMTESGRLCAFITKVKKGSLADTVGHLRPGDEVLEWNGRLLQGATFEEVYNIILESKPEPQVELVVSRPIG
row,Binder,binding result
1,"YGRKKRRQRRRAVAAASANL (also: biotinylated, position not given here) [YGRKKRRQRRRAVAAASANL (SEQ ID NO: 135)]",binds

# Molecular target: T1, GST-RIM2 (KIAA0751) PDZ domain 1
# Assay: modified ELISA, GST-PDZ captured by anti-GST, biotinylated peptide titrated
row,Binder,EC50
1,B1,40 nM
2,"YGRKKRRQRRRQDEEEGIWA (also: biotinylated, position not given here, also called AVC#1790; AVC 1790) [YGRKKRRQRRRQDEEEGIWA (SEQ ID NO: 137)]",5 nM
3,"YGRKKRRQRRRARGDRKRIV (also: biotinylated, position not given here, also called AVC#1796; AVC 1796) [YGRKKRRQRRRARGDRKRIV (SEQ ID NO: 136)]",20 nM

# Molecular target: T2, GST-ZO-1 PDZ domain 2 (human)
# T2 construct: also called ZO-1 d2; ZO1 d2
# Assay: as above
# T2 sequence (chain, as listed by the source): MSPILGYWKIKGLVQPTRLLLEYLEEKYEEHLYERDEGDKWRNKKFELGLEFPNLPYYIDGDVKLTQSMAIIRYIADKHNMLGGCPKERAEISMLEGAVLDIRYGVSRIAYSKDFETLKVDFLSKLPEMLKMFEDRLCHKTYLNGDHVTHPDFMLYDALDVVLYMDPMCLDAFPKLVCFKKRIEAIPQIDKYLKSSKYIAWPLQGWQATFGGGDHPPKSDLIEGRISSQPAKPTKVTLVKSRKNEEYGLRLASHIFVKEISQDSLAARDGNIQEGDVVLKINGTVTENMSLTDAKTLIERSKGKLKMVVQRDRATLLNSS
row,Binder,EC50
1,B1,8 nM
2,"YGRKKRRQRRRQDEEEGIWA (also: biotinylated, position not given here, also called AVC#1790; AVC 1790) [YGRKKRRQRRRQDEEEGIWA (SEQ ID NO: 137)]",50 nM
3,"YGRKKRRQRRRARGDRKRIV (also: biotinylated, position not given here, also called AVC#1796; AVC 1796) [YGRKKRRQRRRARGDRKRIV (SEQ ID NO: 136)]",20 nM

# Molecular target: T3, EGFR (UniProt P00533 25-1210)
# T3 construct: also called HER1
# Assay: immunoprecipitation with anti-EGFR from lysates of transfected 293 cells, anti-MUC1-CD immunoblot
# Procedure: Lysates were subjected to immunoprecipitation with anti-EGFR or IgG as a control.
# Equal amounts of cell lysate were incubated with anti-EGFR (Santa Cruz Biotechnology, Santa Cruz, Calif.) or mouse IgG. […] Reactivity was detected with a horseradish peroxidase-conjugated second antibody and chemiluminescence.
row,Binder,binding result
1,B2,no binding

# Molecular target: FGFR3 (UniProt P22607 23-806, limits assumed)
# Assay: immunoprecipitation with anti-FGFR3 from lysates of transfected 293 cells, anti-MUC1-CD immunoblot
# Procedure: Lysates were subjected to immunoprecipitation with anti-FGFR3 or IgG as a control.
# Equal amounts of cell lysate were incubated with anti-FGFR3 or mouse IgG. […] Reactivity was detected with a horseradish peroxidase-conjugated second antibody and chemiluminescence.
# FGFR3, sequence (P22607 23-806 limits assumed): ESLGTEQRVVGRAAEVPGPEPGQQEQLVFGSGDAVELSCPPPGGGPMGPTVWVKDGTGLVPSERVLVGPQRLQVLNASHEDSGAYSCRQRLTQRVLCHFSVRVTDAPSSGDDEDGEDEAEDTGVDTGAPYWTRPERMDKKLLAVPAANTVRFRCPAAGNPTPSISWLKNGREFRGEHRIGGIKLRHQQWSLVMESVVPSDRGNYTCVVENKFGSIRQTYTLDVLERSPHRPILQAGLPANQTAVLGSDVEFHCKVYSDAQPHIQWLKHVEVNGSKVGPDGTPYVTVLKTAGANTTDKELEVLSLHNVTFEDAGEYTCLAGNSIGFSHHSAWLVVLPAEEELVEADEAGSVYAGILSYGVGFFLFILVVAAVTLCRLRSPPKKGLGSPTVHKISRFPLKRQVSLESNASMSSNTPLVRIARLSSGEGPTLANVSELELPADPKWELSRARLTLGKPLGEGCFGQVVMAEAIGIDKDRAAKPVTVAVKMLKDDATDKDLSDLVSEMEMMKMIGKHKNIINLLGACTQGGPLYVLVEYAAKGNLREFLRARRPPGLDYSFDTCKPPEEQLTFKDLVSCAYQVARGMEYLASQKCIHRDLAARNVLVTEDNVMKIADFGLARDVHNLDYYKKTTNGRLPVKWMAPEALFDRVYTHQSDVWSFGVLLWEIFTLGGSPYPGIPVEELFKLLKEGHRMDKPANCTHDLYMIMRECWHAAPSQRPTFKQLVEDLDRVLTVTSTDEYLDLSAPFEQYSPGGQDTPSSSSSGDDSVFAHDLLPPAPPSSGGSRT
row,Binder,binding result
1,B2,no binding

# Molecular target: GST-LIM Mystique PDZ domain 1 (human)
# Assay: modified ELISA, GST-PDZ captured by anti-GST, biotinylated MUC1 peptide titrated, HRP-streptavidin
# Source text: Titrations to determine relative EC₅₀ values: Peptide corresponding to MUC1 was then titrated against a constant amount of the PDZ domain-containing recombinant proteins identified in the first part of this example.
# GST-LIM Mystique PDZ domain 1 (human), sequence (chain, as listed by the source limits assumed): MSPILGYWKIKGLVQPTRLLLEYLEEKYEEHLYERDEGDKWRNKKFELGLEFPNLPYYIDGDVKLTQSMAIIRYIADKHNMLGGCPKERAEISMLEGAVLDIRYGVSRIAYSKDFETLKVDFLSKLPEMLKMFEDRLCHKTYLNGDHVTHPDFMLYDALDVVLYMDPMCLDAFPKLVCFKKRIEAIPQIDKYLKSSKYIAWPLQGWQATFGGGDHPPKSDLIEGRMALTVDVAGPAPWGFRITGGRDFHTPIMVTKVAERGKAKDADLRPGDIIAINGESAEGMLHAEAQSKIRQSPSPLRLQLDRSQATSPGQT
row,Binder,EC50
1,B3,10 nM

# Molecular target: T1, GST-RIM2 (KIAA0751) PDZ domain 1
# Assay: modified ELISA, plated GST-RIM2 PDZ domain, biotinylated peptide 0.001-10 µM, curve fit; Relative EC50
row,Binder,EC50
1,B4,135 nM
2,B5,10 nM
3,B6,880 nM
4,"YGRKKRRQRRRLQRRRETQV (also: biotinylated, position not given here, TAT plus 9 residues) [YGRKKRRQRRRLQRRRETQV (AVC#1856)]",33 nM
5,B7,90 nM
6,B8,< 10 nM
7,B9,600 nM
8,B1,40 nM
9,B10,78 nM
10,"YGRKKRRQRRRQDEEEGIWA (also: biotinylated, position not given here, also called AVC#1790; AVC 1790) [YGRKKRRQRRRQDEEEGIWA (SEQ ID NO: 137)]",5 nM
11,B11,50 nM
12,B12,240 nM
13,B13,< 10 nM
14,B14,13 nM
15,B15,68 nM
16,B16,< 10 nM
17,B17,< 10 nM
18,B18,22 nM

row,Binder,EC50
1,"YGRKKRRQRRRARGDRKRIV (also: biotinylated, position not given here, also called AVC#1796; AVC 1796) [YGRKKRRQRRRARGDRKRIV (SEQ ID NO: 136)]",20 nM
2,B19,45 nM
3,B20,30 nM
4,B21,8 nM
5,B22,38 nM
6,B23,40 nM
7,B24,47 nM
8,B25,132 nM
9,B26,< 10 nM
10,B27,7 nM
11,B28,45 nM
12,B29,13 nM
13,B30,47 nM
14,B31,< 10 nM
15,B32,10 nM
16,B33,13 nM
17,B34,37 nM
18,B35,~30 nM
